Assays:
Assay in all cases: biochemical
Assay type in all cases: biochemical
266 human kinases [1] = molecular target: 266 human kinases (Homo sapiens, UniProt O14757); details: CHK1(h); 100 μM
How it was run: (§1)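 A filter-capture radiometric assay: phosphorylated cationic substrate binds an anionic membrane and is scintillation-counted, with values referenced to full-activity control.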

266 human kinases [2] = molecular target: 266 human kinases (Homo sapiens, UniProt O96017); details: CHK2(h); 100 μM
How it was run: as §1

266 human kinases [3] = molecular target: 266 human kinases (Homo sapiens, UniProt P00519, Q252H); details: Abl(Q252H)(h); 100 μM
How it was run: as §1

266 human kinases [4] = molecular target: 266 human kinases (Homo sapiens, UniProt P00533, T790M); details: EGFR(T790M)(h); 100 μM
How it was run: as §1

266 human kinases [5] = molecular target: 266 human kinases (Homo sapiens, UniProt P04629); details: TrkA(h); 100 μM
How it was run: as §1

266 human kinases [6] = molecular target: 266 human kinases (Homo sapiens, UniProt P10721, D816H); details: cKit(D816H)(h); 100 μM
How it was run: as §1

266 human kinases [7] = molecular target: 266 human kinases (Homo sapiens, UniProt P10721, V560G); details: cKit(V560G)(h); 100 μM
How it was run: as §1

266 human kinases [8] = molecular target: 266 human kinases (Homo sapiens, UniProt P10721, V654A); details: cKit(V654A)(h); 100 μM
How it was run: as §1

266 human kinases [9] = molecular target: 266 human kinases (Homo sapiens, UniProt P49840); details: GSK3α(h); 100 μM
How it was run: as §1

266 human kinases [10] = molecular target: 266 human kinases (Homo sapiens, UniProt P53355); details: DAPK1(h); 100 μM
How it was run: as §1

266 human kinases [11] = molecular target: 266 human kinases (Homo sapiens, UniProt Q02750); details: MEK1(h); 100 μM
How it was run: as §1

266 human kinases [12] = molecular target: 266 human kinases (Homo sapiens, UniProt Q15418); details: Rsk1(h); 100 μM
How it was run: as §1

266 human kinases [13] = molecular target: 266 human kinases (Homo sapiens, UniProt Q16832); details: DDR2(h); 100 μM
How it was run: as §1

266 human kinases [14] = molecular target: 266 human kinases (Homo sapiens, UniProt Q5VT25); details: MRCKα(h); 100 μM
How it was run: as §1

266 human kinases [15] = molecular target: 266 human kinases (Homo sapiens, UniProt Q86Z02); details: HIPK1(h); 100 μM
How it was run: as §1

266 human kinases [16] = molecular target: T1, 266 human kinases (Homo sapiens, UniProt Q8IWQ3); details: BrSK2(h); 100 μM
T1 sequence (Q8IWQ3 1-736): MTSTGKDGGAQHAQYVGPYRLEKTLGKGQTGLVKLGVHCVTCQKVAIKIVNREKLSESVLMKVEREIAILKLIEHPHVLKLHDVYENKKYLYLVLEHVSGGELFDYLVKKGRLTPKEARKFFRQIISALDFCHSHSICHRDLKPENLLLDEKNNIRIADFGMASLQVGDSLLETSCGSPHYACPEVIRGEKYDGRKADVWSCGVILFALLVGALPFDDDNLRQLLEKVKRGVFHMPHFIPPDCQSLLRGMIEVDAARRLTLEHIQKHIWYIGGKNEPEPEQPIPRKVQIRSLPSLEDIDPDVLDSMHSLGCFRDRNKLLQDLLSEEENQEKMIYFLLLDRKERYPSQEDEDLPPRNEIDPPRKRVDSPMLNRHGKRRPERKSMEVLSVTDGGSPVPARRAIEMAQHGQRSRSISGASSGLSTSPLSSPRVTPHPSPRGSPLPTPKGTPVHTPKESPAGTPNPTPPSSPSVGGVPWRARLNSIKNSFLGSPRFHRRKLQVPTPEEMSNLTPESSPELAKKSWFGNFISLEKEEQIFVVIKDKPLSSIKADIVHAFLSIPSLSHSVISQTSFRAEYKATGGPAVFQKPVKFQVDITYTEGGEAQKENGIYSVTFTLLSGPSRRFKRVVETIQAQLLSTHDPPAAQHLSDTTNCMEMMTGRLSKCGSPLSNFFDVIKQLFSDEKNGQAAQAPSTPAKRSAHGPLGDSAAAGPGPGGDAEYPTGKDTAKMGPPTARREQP
How it was run: as §1

266 human kinases [17] = molecular target: T2, 266 human kinases (Homo sapiens, UniProt Q9HBY8); details: SGK2(h); 100 μM
T2 sequence (Q9HBY8 whole entry, looked up): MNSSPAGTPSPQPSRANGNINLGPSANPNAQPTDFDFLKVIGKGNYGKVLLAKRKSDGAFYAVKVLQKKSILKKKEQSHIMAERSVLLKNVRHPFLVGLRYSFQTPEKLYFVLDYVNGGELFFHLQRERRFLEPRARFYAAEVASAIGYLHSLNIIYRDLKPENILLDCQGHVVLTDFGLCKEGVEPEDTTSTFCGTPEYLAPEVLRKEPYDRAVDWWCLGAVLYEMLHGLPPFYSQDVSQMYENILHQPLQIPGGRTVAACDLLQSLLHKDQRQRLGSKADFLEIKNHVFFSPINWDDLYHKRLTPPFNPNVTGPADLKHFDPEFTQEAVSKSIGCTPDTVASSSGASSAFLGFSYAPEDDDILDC
How it was run: as §1

266 human kinases [18] = molecular target: 266 human kinases (Homo sapiens, UniProt Q9NYY3); details: Snk(h); 100 μM
How it was run: as §1

266 human kinases [19] = molecular target: 266 human kinases (Homo sapiens, UniProt Q9Y243); details: PKBγ(h); 100 μM
How it was run: as §1

266 human kinases [20] = molecular target: 266 human kinases (Homo sapiens, UniProt O75914); details: PAK3(h); 100 μM
How it was run: as §1

266 human kinases [21] = molecular target: 266 human kinases (Homo sapiens, UniProt P07333, Y969C); details: Fms(Y969C)(h); 100 μM
How it was run: as §1

266 human kinases (Homo sapiens, UniProt Q9Y243), sequence (Q9Y243 whole entry): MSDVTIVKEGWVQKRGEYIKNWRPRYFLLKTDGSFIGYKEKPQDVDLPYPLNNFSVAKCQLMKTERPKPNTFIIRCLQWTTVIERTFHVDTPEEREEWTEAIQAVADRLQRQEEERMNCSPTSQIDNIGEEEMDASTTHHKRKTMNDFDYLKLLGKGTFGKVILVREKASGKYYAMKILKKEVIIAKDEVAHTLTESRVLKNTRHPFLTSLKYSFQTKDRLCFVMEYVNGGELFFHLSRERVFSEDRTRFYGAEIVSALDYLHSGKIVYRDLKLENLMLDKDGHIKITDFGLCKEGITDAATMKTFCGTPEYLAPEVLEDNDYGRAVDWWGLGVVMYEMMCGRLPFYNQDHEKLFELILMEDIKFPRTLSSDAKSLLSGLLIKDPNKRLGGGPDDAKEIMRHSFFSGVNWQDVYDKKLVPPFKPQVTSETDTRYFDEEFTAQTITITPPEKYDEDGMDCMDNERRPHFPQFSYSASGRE
266 human kinases (Homo sapiens, UniProt Q15418), sequence (Q15418 whole entry): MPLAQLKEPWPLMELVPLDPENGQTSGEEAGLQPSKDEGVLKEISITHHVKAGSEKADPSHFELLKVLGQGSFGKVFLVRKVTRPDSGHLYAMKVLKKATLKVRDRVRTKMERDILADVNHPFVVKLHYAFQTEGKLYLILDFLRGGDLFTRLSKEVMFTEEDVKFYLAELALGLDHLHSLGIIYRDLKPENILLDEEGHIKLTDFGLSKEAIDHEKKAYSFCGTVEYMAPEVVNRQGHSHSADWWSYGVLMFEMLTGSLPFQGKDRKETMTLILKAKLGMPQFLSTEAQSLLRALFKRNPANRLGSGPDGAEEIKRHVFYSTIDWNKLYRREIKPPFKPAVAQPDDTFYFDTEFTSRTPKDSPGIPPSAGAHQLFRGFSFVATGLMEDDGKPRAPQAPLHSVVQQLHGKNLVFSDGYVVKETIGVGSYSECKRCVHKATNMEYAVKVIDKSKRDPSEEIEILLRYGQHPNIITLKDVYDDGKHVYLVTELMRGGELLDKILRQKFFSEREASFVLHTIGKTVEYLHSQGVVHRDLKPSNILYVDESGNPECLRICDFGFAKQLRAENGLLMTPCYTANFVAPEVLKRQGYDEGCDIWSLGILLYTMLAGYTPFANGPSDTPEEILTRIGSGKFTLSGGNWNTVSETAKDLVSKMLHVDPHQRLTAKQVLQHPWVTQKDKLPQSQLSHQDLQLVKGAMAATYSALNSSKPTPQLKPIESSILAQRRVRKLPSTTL
266 human kinases (Homo sapiens, UniProt Q9NYY3), sequence (Q9NYY3 whole entry): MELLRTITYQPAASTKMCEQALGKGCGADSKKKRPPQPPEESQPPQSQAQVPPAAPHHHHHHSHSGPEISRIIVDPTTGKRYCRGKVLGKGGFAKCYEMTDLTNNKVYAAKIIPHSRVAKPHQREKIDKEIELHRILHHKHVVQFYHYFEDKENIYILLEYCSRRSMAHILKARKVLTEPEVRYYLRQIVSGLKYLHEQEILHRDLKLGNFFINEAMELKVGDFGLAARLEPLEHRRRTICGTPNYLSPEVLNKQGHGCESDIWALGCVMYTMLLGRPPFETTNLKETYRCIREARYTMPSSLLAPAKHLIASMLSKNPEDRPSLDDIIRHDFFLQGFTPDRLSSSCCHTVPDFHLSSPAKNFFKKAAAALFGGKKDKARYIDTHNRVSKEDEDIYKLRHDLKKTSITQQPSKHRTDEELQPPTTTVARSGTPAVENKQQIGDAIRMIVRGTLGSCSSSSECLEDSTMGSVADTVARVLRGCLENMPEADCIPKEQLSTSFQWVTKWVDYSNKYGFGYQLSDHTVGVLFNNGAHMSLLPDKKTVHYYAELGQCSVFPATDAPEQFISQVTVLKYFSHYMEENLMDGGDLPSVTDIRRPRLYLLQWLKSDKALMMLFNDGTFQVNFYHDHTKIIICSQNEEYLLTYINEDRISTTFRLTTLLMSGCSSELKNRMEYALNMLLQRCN
266 human kinases (Homo sapiens, UniProt Q5VT25), sequence (Q5VT25 whole entry): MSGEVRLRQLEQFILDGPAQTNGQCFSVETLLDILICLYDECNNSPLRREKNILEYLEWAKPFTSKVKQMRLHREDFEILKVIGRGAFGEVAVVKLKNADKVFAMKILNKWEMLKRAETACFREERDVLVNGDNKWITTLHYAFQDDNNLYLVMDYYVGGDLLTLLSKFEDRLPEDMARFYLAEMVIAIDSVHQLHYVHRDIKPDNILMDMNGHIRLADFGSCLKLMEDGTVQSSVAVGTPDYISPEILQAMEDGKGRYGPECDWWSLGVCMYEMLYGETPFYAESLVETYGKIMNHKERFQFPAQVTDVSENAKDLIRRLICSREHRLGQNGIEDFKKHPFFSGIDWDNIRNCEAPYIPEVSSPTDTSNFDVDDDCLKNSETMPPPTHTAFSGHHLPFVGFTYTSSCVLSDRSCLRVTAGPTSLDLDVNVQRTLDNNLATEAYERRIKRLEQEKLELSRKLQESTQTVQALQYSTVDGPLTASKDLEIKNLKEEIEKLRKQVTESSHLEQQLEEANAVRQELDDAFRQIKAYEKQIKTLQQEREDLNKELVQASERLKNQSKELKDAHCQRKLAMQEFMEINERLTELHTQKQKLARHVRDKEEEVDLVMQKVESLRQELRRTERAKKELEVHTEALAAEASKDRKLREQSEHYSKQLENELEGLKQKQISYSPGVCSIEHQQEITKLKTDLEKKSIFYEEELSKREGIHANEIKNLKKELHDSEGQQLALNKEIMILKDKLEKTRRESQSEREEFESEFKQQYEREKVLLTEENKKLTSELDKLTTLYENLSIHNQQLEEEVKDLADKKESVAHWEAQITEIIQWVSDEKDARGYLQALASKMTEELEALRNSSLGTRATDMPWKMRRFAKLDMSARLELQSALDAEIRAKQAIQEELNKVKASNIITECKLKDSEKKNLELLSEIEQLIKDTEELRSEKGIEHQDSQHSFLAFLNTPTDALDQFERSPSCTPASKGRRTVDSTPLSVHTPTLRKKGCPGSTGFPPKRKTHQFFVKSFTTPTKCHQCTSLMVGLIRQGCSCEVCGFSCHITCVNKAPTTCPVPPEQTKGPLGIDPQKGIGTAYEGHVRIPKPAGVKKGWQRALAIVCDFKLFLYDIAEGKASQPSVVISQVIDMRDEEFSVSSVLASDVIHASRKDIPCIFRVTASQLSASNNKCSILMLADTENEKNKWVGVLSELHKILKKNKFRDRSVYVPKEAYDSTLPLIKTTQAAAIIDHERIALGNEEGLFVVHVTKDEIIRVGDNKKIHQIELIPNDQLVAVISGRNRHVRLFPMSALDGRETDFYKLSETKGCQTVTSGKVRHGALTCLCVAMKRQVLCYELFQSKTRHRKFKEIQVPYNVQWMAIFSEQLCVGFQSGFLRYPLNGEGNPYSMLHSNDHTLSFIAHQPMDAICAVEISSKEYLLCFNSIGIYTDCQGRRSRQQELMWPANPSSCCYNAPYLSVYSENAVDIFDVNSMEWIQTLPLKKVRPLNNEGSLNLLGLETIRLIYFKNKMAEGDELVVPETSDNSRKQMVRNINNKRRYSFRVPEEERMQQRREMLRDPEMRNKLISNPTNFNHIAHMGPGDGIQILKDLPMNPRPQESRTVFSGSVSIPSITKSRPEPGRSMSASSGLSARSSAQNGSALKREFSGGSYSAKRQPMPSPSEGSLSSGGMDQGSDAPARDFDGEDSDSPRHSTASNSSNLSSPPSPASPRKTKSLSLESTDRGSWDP
266 human kinases (Homo sapiens, UniProt O75914), sequence (O75914 whole entry): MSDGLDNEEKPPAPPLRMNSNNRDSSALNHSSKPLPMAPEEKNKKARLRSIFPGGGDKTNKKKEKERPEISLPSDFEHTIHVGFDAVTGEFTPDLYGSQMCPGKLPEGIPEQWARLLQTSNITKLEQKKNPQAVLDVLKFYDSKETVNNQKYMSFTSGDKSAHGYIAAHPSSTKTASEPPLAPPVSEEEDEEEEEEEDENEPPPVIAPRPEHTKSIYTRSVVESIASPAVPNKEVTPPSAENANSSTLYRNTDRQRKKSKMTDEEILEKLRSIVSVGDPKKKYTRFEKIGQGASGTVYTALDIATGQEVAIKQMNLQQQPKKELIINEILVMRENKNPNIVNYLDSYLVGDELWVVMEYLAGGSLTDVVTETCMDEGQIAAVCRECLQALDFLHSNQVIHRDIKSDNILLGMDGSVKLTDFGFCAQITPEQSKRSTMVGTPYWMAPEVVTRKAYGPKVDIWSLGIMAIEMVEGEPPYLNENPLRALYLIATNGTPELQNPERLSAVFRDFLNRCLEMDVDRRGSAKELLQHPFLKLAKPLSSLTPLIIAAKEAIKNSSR
266 human kinases (Homo sapiens, UniProt P04629), sequence (P04629 33-796): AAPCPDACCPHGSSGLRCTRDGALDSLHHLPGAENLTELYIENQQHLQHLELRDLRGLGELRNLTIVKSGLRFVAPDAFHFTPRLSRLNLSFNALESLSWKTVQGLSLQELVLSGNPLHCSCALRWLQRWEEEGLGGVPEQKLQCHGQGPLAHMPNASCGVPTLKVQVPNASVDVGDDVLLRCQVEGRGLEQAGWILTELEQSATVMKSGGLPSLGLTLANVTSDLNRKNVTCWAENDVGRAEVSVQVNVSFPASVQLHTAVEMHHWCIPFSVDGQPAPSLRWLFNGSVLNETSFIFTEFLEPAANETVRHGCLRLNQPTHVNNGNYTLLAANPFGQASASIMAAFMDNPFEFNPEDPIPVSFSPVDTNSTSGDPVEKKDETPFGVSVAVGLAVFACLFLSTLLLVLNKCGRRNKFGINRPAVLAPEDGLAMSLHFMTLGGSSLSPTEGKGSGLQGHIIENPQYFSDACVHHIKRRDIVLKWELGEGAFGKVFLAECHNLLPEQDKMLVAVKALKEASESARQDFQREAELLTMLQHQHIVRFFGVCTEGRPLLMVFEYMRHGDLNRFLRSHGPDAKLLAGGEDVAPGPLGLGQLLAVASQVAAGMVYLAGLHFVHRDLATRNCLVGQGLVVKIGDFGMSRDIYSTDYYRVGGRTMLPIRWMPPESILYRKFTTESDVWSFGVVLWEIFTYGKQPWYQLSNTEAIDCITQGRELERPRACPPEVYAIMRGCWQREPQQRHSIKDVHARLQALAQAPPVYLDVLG

**Q.** How did the “% activity” value (266 human kinases [1]) turn out when “HRRIKAWLKKIKALARQLGVAA (mammal) [MMI-0500]” was run?
**A.** 65%

**Q.** And the “% activity” value (266 human kinases [2])?
**A.** 13%

**Q.** And the “% activity” value (266 human kinases [3])?
**A.** 40%

**Q.** What about the “% activity” value (266 human kinases [4]) of the same sequence?
**A.** 70%

**Q.** And the “% activity” value (266 human kinases [5])?
**A.** 24%

**Q.** What about the “% activity” value (266 human kinases [6]) of the same sequence?
**A.** 194%

**Q.** And the “% activity” value (266 human kinases [7])?
**A.** 198%

**Q.** And the “% activity” value (266 human kinases [8])?
**A.** 223%

**Q.** What about the “% activity” value (266 human kinases [9]) of the same sequence?
**A.** 175%

**Q.** And the “% activity” value (266 human kinases [10])?
**A.** 0%

**Q.** What about the “% activity” value (266 human kinases [11]) of the same sequence?
**A.** 21%

**Q.** What about the “% activity” value (266 human kinases [12]) of the same sequence?
**A.** 34%

**Q.** What about the “% activity” value (266 human kinases [13]) of the same sequence?
**A.** 79%

**Q.** And the “% activity” value (266 human kinases [14])?
**A.** 5%

**Q.** And the “% activity” value (266 human kinases [15])?
**A.** 47%

**Q.** What about the “% activity” value (266 human kinases [16]) of the same sequence?
**A.** 84%

**Q.** What about the “% activity” value (266 human kinases [17]) of the same sequence?
**A.** −1%

**Q.** What about the “% activity” value (266 human kinases [18]) of the same sequence?
**A.** 122%

**Q.** And the “% activity” value (266 human kinases [19])?
**A.** 20%

**Q.** “YARAAARQARAKALNRQLGVA (mammal) [MMI-0200]” was tested. Which “% activity” value (266 human kinases [20]) did it give?
**A.** 50%

**Q.** What about the “% activity” value (266 human kinases [21]) of the same sequence?
**A.** 88%

— patent publication US20140072613A1, “Compositions and Methods for Treating Cutaneous Scarring” (priority 2012, published 2014)
